Experimental data taken from the DeepSol protein solubility set.

Assay: soluble on expression in E. coli; label from the status in PepcDB or PDB records

Sequence | soluble on expression in E. coli
MSLDLREYSTDHQKIKRIEFNCKSKNNTLDGLLTPEEIVAEAKRQGHSAVGISDYNSIFSFPEFYYAAKANNIKPIYGAGFAMLEDTNGAFLTEFQNQDLITGRYVVFDIETTSLSAYHGEIIEFAATIIENKAVVDKVDIFIKSKEKLSHFTTRLTSITNEMLDQKGIELKEALQKIYDVMNNNVAVAHNANFDYNFLIEKFDQNNMQAPKCTFIDSLVVSRILFEHRDKHNLNEFCRNMSVNYDTEKAHRALYDTEVLADAWIEATLKMKDIKQISNFQELSEYKSDALFSKYFSLYINTVVKNQAGLKELFQLVSIANTKTFYGAPKIFWSTLKSFKNILVGSNGVQGELFDIMMLSSRQRVEKYIQKLDYIEIPHPDLFDSYLDRNQLTKDQLLESLQILISLAKKHNKLIISTAEPRYRHKGDREIFKVLTSFPIRDKRHFLWNYKAVKAGNYSVPNFYFLTTDEMLDAFSFLKDKSLIEDIVVNNAHKLNNLIDENIEVIKTDLYPPSIKNSSELLKDLVYKNAKKKYGEVLPKLVQDRIDKELIPIINYKFDVVYWISHILVKKANDDGYVVGSRGSVGSSLIANLINITEVNPLEPHYICDNCKHFEVVNNDKITSGYDLDDKNCPNCDSIMDKDGHSIPFETFLGFKADKVPDIDLNFSGEYQIAIHNYTRELFGEDKTFRAGTVSSIQYRKAFGFIKKYIEDTNTFYSNGFIDYLAEKCIDVKVTTGKHAGGIVVLPENLDIEEFTPVNYASDGLEDKEWKTTHFKYDFLKENLLKLDLLGHSDPTQIRFLEQATGLLSKNIPKKDKNLLKLFSSTEPMEIDPNDINGETTGAIALPEFGTKFTREIIKTSKPHLFADLISISGLSHGQNVWKNNAEDLILNENKTLNEIVCCRDDIMNYLIKKGVDASLSFKVTESVRKGKGVDSEDIKILSTYNIPDWFFDSMQKIKYMFPRAHAVAYVIMAWRMGYYKLYYPLEFYASFFSVKCSKFDLSAMIDFSKDGYWKIKNKIEEIEKLIRTNNKKDNKKEEDILESLNVALEMYSRGFTIQNIDIEKSDAYNWIIDKDSKSLIPPFSALDGIEAGAIKIINARKERPFKTVLDFAKRSGVSSTIVEKLKELNVFKDLPESEQLSLFGEGHHHHHH | soluble
MSLDNAMRNIFNGMMTTTSPASFETATRTGVVGGSFSYRTTNVNTNLVSMSFPKASVGCNGIDVFLGSFSMINGDQLVQVARGIAQGAAIYAFNVAVSAICADCAATINDIQNKLQALNKFAKDSCNATYSFLTENVGPPSQFANAVSSGPASMLGTLNGLLPDFGSSMTKSPETVTSQVKAKDPEEFAEKFSGNLFYMSFMDIDKGSMNIGGVTELSGYRLAEQLMSLVGTVIINWDAKGEKAGMEVRPSTMTVSDFIMGPPAGGSIKMLKCSPAPDPASARKSQCLVMSEVTDGGFKGLKDTISDLLIQVQTKAISDVRISDDELRIISYIGIPTILDSLQTFDVPEGYAYIQDISAIAATSLVINMLRQVEAKISAMNIPSESLSGRRQDLTRLSENLTNQVKAAYELTRSQVGNSSDVISAWDDRRLKRKAFMESLRGTGNEGHHHHHH | not soluble
MSLDPVGPISDEETSYYVRLQYNGEFLPLFTKVDGITYKKDKSDYSPLKPSFIAGGGAFGYKMDDIRVDVEGVYSYLNKNDVKDVTFDPANTIADSVTAISGLVNVYYDIAIEDMPITPYIGVGVGATYISTPLEPAVNDQKSKFGFAGQVKAGVSYDVTPEVKLYAGARYFGSYGANFDGKKTDPKDSTRQVTDAGAYKVLYSTVGAEAGVAFNFEGHHHHHH | not soluble
MSLDRNEMLEFAAKLHSHLSPGVALGIKMAQIAYEKLGVNFRGKGLVGIAETAMCLPDALQVVAGTTPGNRNLIVKDYGKLALAIVRFDTREGYRVTIKKEAAKKSELIKKFLYRLGKLNKEEEKRLAEEFLNLEPEYFEVREIRLTIPVGGTKEPIVECEKCGELQPSDYVAEVDGRMVCFMCAGKGYFEEGGSHHHHHH | soluble
MSLDRVDWPHATFSTPVKRIFDTQTTLDFQSSLAIHRIKYHLHKYTTLISHCSDPDPHATASSIAMVNGLMGVLDKLAHLIDETPPLPGPRRYGNLACREWHHKLDERLPQWLQEMLPSEYHEVVPELQYYLGNSFGSSTRLDYGTGHELSFMATVAALDMLGMFPHHRGADVFLLFNKYYTIMRRLILTYTLEPAGSHGVWGLDDHFHLVYILGSSQWQLLDAQAPLQPREILDKSLVREYKDTNFYCQGINFINEVKMGPFEEHSPILYDIAVTVPRWSKVCKGLLKMYSVEVEKKFPVVQHFWFGTGFFPWVNIHHHHHH | soluble
MSLDSKIDILIVVNMFLTGFDSKVLNTLYVDKNLMYHDLIQAYSRTNRVEKESKPFGKIVNYRDLKKETDDALRVFSQTNDTDTILMRSYEEYKKEFMDAYRELKMIVPTPHMVDDIQDEEELKRFVEAYRLLAKIILRLKAFDEFEFTIDEIGMDEQENEDYKSKYLAVYDQVKRATAEKNKVSILNDIDFEIEMMRNDTINVNYIMNILRQIDLEDKAEQREGHHHHHH | soluble
MSLDTDSGENNKDSSIPQGGVTVSPEVLAHRPLIEKYGKEYGIEDYVSYILAIMQVESGGTAEDVMQSSESLGLPPNSLSTEESIKQGVKYFSELLTSAEQQGVDIDSVIQSYNYGGGFLNYVRSHGKKYTYELAEQFSKEKSGGQKADYPNPIAIPVNGGWRYNYGNQFYVQLVSQYLTDTSPTEFDDETVQVIMDEALKYEGFPYVFGGASPTTSFDCSGLIQWVYDKAGISLPRVAQDQYDATQEISMEEAQAGDLIFFHSTYNAGTYVTHVAIYLEGNRFYHAGDPIGYGDLSSRYWQDHLIGARRVIHNEGHHHHHH | soluble
MSLEEIETDVLVIGGGPGGMSAAINAGKYGAKVLLVDENPFLGGQLVKQTHRFFGSAKERAGTRGIKIAGILEEELNSIENVEVRRETRVFGIYNGEAGAYQRLNDDEGKLLRIKAKKIVVATGAYERTLIFENNDLPGVYGAGGVQTLMNVYGIKPGNMGLIVGSGNVGLILTYQLMQAGVNVAAIVEAMPRIGGYFVHAAKVRRLGVPIYVRHTILKAIGRKSVEGAVIAQLDDRWQPIPGTEKEIKCDFICVAVGLSPTHELLYQAGCEMKFVPELGGIVPLRTRFNETSVKGLYVAGDVAGIEEATAAIMEGRIAGIHAAVTLGYGGEEAKKELDEAVKEIEEFRAGPFGERIVCGLEKCTLESEGHHHHHH | soluble
MSLEEQREILEQLKKTLQMLTVEPSKNNQIANEEKEKKENENSWCILEHNYEDIAQEFIDFIYKNPTTYHVVSFFAELLDKHNFKYLSEKSNWQDSIGEDGGKFYTIRNGTNLSAFILGKNWRAEKGVGVIGSHVDALTVKLKPVSFKDTAEGYGRIAVAPYGGTLNELWLDRDLGIGGRLLYKKKGTNEIKSALVDSTPLPVCRIPSLAPHFGKPAEGPFDKEDQTIPVIGFPSPDEEGNEPPTDDEKKSPLFGKHCIHLLRYVAKLAGVEVSELIQMDLDLFDVQKGTIGGIGKHFLFAPRLDDRLCSFAAMIALICYAKDVDTEESELFSTVTLYDNEEIGSLTRQGAKGGLLESVVERSSSAFTKKAVDLHTVWANSIILSADVNHLYNPNFPEVYLKNHFPVPNVGITLSLDPNGHMATDVVGTALVEELARRNGDKVQYFQIKNNSRSGGTIGPSLASQTGARTIDLGIAQLSMHSIRAATGSKDVGLGVKFFNGFFKHWRSVYDEFGELEGHHHHHH | soluble
MSLEEVIEQLREANEPVPVPLELPDEDQLVEIEEQLFINIPFVFKEFLLTVSDVVYGSLEPVTVTDPQSHTYLPEVCATAWDLGVPRELIPICQDGEDYYCVEEDGTVLLWSAEEELVTEESWESVWHWARDVWLESEGHHHHHH | soluble
MSLEFFMAKADNPAFEQGQSPRMRLPDSVPLLIVGGGIMGLWAAVKAERLGIGTLLVEAGRLGGGASGGLLGALMPHMPDRWSDKKQFQFDALVALEAEIAGLEAETGLSGGYRRCGRIIPLPKPHLRGIAERHERDAAENWRSGERRFQWHVGERPSVAGWVDDAAGEAGFVFDTLAARVSPRALIALLSAFLRKARHVQVAEGCRVVSLDADAGRAALSSGEEISFGHVVVANGHESFPLIRDALGLEAGVALGQAVKGQAALLDASADPAMPVVFLNGLYIVPHEDGTVAIGSTSEDCFSEPFSTDEKLEKLLVDACTVVPSLAGAPVLERWAGLRPKAVGRDPMVGAMAGTAKLVALSGGFKVSFGLAHFLADAALETVCGHTPVIPSGFRLQEHVSIAVPDFRKFLEHHHHHH | not soluble
MSLEGYTVIIKTGNEDLDRRLTGLPFPALIMIEGDHGTGKSVLAAQICYGLLISDKKGYVITTEQTTKDYLVKMRDVKINLIPFFIKGSLGVAPLNTNKFNWNSDLANKILDLIIDFVKKRKNIEFLIIDSLSVLATFAEERQILQFMKESRVLVDLGKLILFTIHPDVFSEEIKSRITSIVDVYFKLSAVTIGGRRIKVLERVKTVGGIQGSDTISFDIDPALGIKVIPLSLSRAEGHHHHHH | soluble
MSLEIIKTGLAAFGMSGQVFHAPFISTNPHFELYKIVERSKELSKERYPQASIVRSFKELTEDPEIDLIVVNTPDNTHYEYAGMALEAGKNVVVEKPFTSTTKQGEELIALAKKKGLMLSVYQNRRWDADFLTVRDILAKSLLGRLVEYESTFARYRNFIKPNTWKETGESGGGLTYNLGSHLIDQAIQLFGMPEAVFADLGILREGGKVDDYFIIHLLHPSLAPNVKITLKASYLMREAEPRFALHGTLGSYVKYGVDKQEAALLAGEIPERPNWGEESEQEWGLLHTEINGKEICRKYPGIAGNYGGFYQNIYEHLCLGQPLETHAQDILNVIRIIEAAYQSHRENKIVNLKEGHHHHHH | soluble
MSLEKLKSTEFYASQIKHCFTIPSRTAKYKGLCFELAPEVYQGMEHENFYSHQADAINSLHQGENVIITTSTSSGKSLIYQLAAIDLLLKDPESTFMYIFPTKALAQDQKRAFKVILSKIPELKNAVVDTYDGDTEPEERAYIRKNARVIFTNPDMIHTSILPNHANWRHFLYHLKLVVVDELHIYKGLFGSHVALVMRRLLRLCHCFYENSGLQFISCSATLKSPVQHMKDMFGINEVTLIHEDGSPTGAKHLVVWNPPILPQHERKRENFIRESAKILVQLILNNVRTIAFCYVRRVCELLMKEVRNIFIETGREDLVTEVMSYRGGYSASDRRKIEREMFHGNLKAVISTNALELGIDIGGLDAVLMCGFPLSMANFHQQSGRAGRRNNDSLTLVVASDSPVDQHYVAHPESLLEVNNFESYQDLVLDEGHHHHHH | not soluble
MSLEKLTVSDSKKLFHEQFPYVIPGLYKRIVDEMLVELNLLNHQNEFIQDDLFCVGLTETFKELTKGYKPEEHLRVLFESLCNSSNFEPKKIKEASKKTLEVYKDKSLKEISILLKQKSDSNLYSSRIMNLGIYLIIANATDFKDIKDPEKNKIISDIINKLNLSFNKAEKDIGIYKSSILKMEQAKELLQEAKIKDKKEKEGHHHHHH | soluble
MSLEKTKLPWDEFFSLNKDINHTYFTPEDFSGDEDLIAKTTEQFVKQEIVPQMENIEQHNYKVSRQLFEKAGELGLLGIEVPEDYGGFELGKAVSGLVAEKMGYAGAFSVSFNIHAGVGTLPYIYYGTKEQKEKYLPKIASGEWIGAYALTEPNAGSDALSAKTSAVLNEEGTAWKLNGEKQWITNAHMADVYVVFAKTNKGMTAFIVERTCEGVSIGLEEKKMGIKGSSTATLILEDVVIPAENVLGEVGKGHHVALNILNFARLKLAFGNIGTAKQAIGLSVQYGKERKQFQTELVDFTMIQEKIANMIIATYGAESAAYRTAGVIDEAIHESDEDLMKKMSQFAIECALNKVNASETLAYIVDEAVQIHGGYGYMQEYEVERLYRDARISRIFEGTNEINRLTVAKMLMKQIEQLEEGHHHHHH | not soluble
